Consider four molecules from patent US20260070974A1 (NONA BIOSCIENCES SUZHOU, published 2026).

Values joined by “and” are separate entries in the source; they are usually repeats but may differ in a detail not shown here. Identical values can stand only once.

What is called EC50 is the concentration giving half of the maximal effect. Low values mean a more potent agent, high ones a less potent agent.

Test [1] deals with T1, human Siglec-15 ECD-his protein (Acrobiosystems, Cat #: SG5-H52H3) (human, UniProt Q6ZMC9 20-263).
T1 construct: Bought protein; only its extracellular domain stood in the assay; also called human Siglec-15 protein; recombinant human Siglec-15 protein; not shown: his tag
T1 sequence: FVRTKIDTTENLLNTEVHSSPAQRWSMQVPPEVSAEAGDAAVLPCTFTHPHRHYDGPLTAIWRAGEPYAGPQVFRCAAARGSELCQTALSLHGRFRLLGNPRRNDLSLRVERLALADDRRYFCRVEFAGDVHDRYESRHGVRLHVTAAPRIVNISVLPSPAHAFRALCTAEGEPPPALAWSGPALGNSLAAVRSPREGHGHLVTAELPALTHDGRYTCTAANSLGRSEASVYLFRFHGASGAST
Put plainly: ELISA, coated human Siglec-15 ECD-his. As to the method: […] human Siglec-15 ECD-his protein (Acrobiosystems, Cat #: SG5-H52H3) dissolved in PBS was added to an ELISA plate at 100 μL/well for coating and the plate was incubated overnight at 4° C. The ELISA plate was then blocked with PBST (PBS+0.05% Tween 20) containing 2% BSA at 200 μL/well and incubated at 37° C. for 1 h. The ELISA plate was washed 4 times with PBST. The anti-Siglec-15 antibody diluted in a gradient (5-fold dilution, starting concentration: 6.67 nM) was added to the ELISA plate at 100 μL/well and the plate was incubated at 37° C. for 1 h. The ELISA plate was washed 4 times with PBST. The goat anti-human IgG (H+L)-HRP (1:5000, Jackson, Cat #: 109-035-088) was added at 100 μL/well and the plate was incubated at 37° C. for 1 h. The ELISA plate was washed 4 times with PBST. The TMB substrate (Biopanda, Cat #: TMB-S-003) was added at 100 μL/well, and the plate was incubated at room temperature for 5 min, and then the stop buffer (Solarbio, Cat #: C1058) was added at 100 μL/well to stop the reaction.
In general terms: An ELISA detects its analyte on a solid surface through an enzyme-linked reagent.

In test [2] the target is T2, human Siglec-3-his protein (Acrobiosystems, Cat CD3-H5226) (human, UniProt P20138 18-259).
T2 construct: Bought protein; not shown: his tag
T2 sequence (P20138 18-259 limits assumed): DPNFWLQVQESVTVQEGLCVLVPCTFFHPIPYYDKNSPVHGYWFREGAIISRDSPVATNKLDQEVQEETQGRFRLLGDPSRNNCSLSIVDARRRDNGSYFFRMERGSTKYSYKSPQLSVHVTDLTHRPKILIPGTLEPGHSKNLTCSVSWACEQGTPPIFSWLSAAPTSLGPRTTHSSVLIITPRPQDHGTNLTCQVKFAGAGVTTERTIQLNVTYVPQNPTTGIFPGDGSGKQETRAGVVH
Kind of test: ELISA on coated human Siglec-3-his, antibody at 100 nM and 10 nM, goat anti-human IgG-HRP, OD450. As to the method:
(§1) Human Siglec-15 ECD-his protein (Acrobiosystems, Cat SG5-H52H3), human Siglec-2-his protein (Acrobiosystems, Cat CD2-H52H8), human Siglec-4a-his protein (Acrobiosystems, Cat MAG-H52H8), human Siglec-3-his protein (Acrobiosystems, Cat CD3-H5226), human Siglec-10-his protein (Acrobiosystems, Cat SIO-H52H9), and human PD-L1/B7-H1-his protein (Acrobiosystems, Cat PD1-H5229), each at 1 μg/mL and dissolved in PBS, were each added to an ELISA plate at 100 μL/well for coating and the plate was incubated overnight at 4° C. The ELISA plate was then blocked with PBST (PBS+0.05% Tween 20) containing 2% BSA at 200 μL/well and incubated at 37° C. for 1 h. The ELISA plate was washed 4 times with PBST. The anti-Siglec-15 antibody diluted in a gradient (concentrations: 100 nM and 10 nM) was added to the ELISA plate at 100 μL/well and the plate was incubated at 37° C. for 1 h. The ELISA plate was washed 4 times with PBST. The goat anti-human IgG (H+L)-HRP (1:5000, Jackson, Cat 109-035-088) was added at 100 μL/well and the plate was incubated at 37° C. for 1 h. The ELISA plate was washed 4 times with PBST. The TMB substrate (Biopanda, Cat TMB-S-003) was added at 100 μL/well, and the plate was incubated at room temperature for 5 min, and then the stop buffer (Solarbio, Cat #: C1058) was added at 100 μL/well to stop the reaction.

The target of test [3] is T3, human Siglec-10-his protein (Acrobiosystems, Cat SIO-H52H9) (human, UniProt Q96LC7 17-546, limits assumed).
T3 construct: Bought protein; not shown: his tag
T3 sequence (looked up): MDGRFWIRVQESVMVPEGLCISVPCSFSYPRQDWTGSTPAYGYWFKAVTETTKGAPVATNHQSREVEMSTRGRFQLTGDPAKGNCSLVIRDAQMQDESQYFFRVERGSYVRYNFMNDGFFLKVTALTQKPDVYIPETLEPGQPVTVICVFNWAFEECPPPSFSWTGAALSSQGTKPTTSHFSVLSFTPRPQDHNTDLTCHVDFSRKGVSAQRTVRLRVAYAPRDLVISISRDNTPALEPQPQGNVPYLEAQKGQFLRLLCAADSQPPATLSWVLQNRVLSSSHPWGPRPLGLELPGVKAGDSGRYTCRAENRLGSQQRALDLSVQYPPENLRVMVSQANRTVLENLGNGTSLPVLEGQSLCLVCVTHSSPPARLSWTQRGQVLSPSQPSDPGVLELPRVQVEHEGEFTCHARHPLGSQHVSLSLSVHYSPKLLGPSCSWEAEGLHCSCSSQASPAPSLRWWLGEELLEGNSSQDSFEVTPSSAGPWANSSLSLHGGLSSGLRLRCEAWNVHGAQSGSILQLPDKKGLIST
Kind of test: ELISA on coated human Siglec-10-his, antibody at 100 nM and 10 nM, goat anti-human IgG-HRP, OD450. As to the method: as §1

In test [4] the target is T4, human Siglec-4a-his protein (Acrobiosystems, Cat MAG-H52H8) (human, UniProt P20916 20-516).
T4 construct: Bought protein; not shown: his tag
T4 sequence (looked up): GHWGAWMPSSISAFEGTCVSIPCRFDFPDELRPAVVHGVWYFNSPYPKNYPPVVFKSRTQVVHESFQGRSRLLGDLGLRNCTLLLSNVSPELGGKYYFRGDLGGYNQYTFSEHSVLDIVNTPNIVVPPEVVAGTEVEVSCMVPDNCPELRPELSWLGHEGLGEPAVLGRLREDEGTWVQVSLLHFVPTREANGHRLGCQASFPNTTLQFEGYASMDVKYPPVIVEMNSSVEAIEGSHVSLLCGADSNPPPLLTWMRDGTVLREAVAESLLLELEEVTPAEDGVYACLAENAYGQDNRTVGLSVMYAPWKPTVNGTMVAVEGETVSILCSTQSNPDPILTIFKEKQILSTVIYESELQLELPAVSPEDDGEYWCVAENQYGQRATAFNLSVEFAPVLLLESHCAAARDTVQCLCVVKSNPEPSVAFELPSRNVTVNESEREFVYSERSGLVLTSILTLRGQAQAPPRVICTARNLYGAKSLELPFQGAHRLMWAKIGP
Put plainly: ELISA on coated human Siglec-4a-his, antibody at 100 nM and 10 nM, goat anti-human IgG-HRP, OD450. On the procedure: as §1

B1: PR301286 (antibody, human IgG1, kappa, V domains shown)
VH: QVQLVESGGGVVQPGKSLRLSCAASGFTFSSYGMHWVRQAPGKGLEWVAVIWIDGSNRYYAASVKGRFTISRDNSKNTLYLQMNSLRAEDTAVYYCTRGYGDYAYVMDVWGQGASVTVSS
VL: DIVMTQSPLSLPVTPGEPASISCRSSQSLLPGNGYNYLDWYLQKPGQSPQLLIYLGSNRASGVPDRFSGSGSGTDFTLKISRVEAEDVGIYYCMQALQSPLTFGGGTKVEIKR
notes: Parent of the PTM variants PR301286-1, -3, -5, -6, -7
For B1, in test [1], the EC50 was 0.027 nM and 0.018 nM and 0.022 nM. Further, the binding result in test [2], in test [3] and in test [4] was “no binding (tested: 100 nM)” throughout.

B2: PR301289 (antibody, human IgG1, kappa, V domains shown)
VH: QVQLVQSGAEVKKPGASVKVSCRASGYTFTSYDINWVRQATGQGLEWMGWMNPHSGDTGYAQNFQGRVTMTWNTSISTAYMELSSLRSEDTAVYYCARRRVGVYYYGMDVWGQGTTVTVSS
VL: ENVLTQSPGTLSLSPGERATLSCRASQSVSSSYFGWYQQKPGQAPRLLIYGASSRATGIPDRFSGSGSGTDFTLTISRLEPEDFAVYYCQQYGSSPITFGQGTRLEIKR
notes: Parent of the PTM variants PR301289-1 and -2
On to B2, for which the EC50 in test [1] was 0.027 nM and 0.058 nM. The binding result in test [2], in test [3] and in test [4] was “no binding (tested: 100 nM)” each time.

B3: PR300066 (Tab) (antibody, human IgG1, kappa, V domains shown)
VH: QVQLQQPGAELVKPGASVKMSCKASGYTFTSYWITWVIQRPGQGLEWIGDIYCGSDTMHYNEKFKNKATLTVDTSSSTAYMQLSSLTSEDSAVYYCARWWDYGSSYDYFDYWGQGTTLTVSS
VL: DIKMTQSPSSMYASLGERVTITCKASQDINSYLSWFQQKPGKSPKTLIYRANRLVDGVPSRFSGSGSGQDYSLTISSLEYEDMGIYYCLQYDEFPYTFGGGTKLEIKR
notes: variable region from clone 5G12 of WO 2018/057735A1, on human IgG1/kappa constant regions; also called 5G12
B3: in test [1], the EC50 is 0.022 nM and 0.021 nM and 0.012 nM. Besides, the binding result in test [2], in test [3] and in test [4] was “no binding (tested: 100 nM)” in each case.

B4: PR301285 (antibody, human IgG1, kappa, V domains shown)
VH: QVQLQESGPGLVKPSETLSLTCTVSGGSMISYYWSWLRQPPGKGLEWIGYIYYSGNTNYNPSLKSRITIAVDTSKNQFSLKLNSVTAADTAVYYCARERELHPYYFDYWGQGTLVTVSS
VL: DIQLTQSPSFLSASVGDRVTITCRASQGIDNYLAWYQQKPGKAPKVLIYAASTLQSGVPSRFSGSGSGTEFTLTISSLQPEDFATYYCQQLNSYPLTFGGGTKVEIKR
Molecule B4 came in with an EC50 in test [1] of 0.031 nM. Further, the binding result in test [2], in test [3] and in test [4] was “no binding (tested: 100 nM)” each time.
